Source: patent publication US20070065875A1 (INNATE PHARMA S A, published 2007)
Values belong to the binder of their own block, whether it stands above or below them.

How the values were obtained:
[1] = target: T1, NTB-A (NK-T-B-antigen) (human, UniProt Q96DU3 22-332); experiment: NTB-A immunoprecipitates from 1% digitonin NK cell lysates probed by western blot
T1 construct: Full-length surface glycoprotein; Native cells may also carry the allelic isoform with an extra Ala at position 266; also called KALI cDNA product; MA127-reactive molecule
T1 sequence: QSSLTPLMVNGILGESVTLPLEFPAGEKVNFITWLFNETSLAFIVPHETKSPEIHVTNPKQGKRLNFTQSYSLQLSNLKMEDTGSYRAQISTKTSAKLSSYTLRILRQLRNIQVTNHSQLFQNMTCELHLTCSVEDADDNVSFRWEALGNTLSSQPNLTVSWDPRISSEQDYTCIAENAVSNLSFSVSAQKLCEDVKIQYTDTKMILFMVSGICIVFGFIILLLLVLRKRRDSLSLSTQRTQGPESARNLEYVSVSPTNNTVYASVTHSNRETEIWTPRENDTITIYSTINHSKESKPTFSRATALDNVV
Procedure: (§1) NK cells (10⁸) were stimulated or not with 100 M sodium pervanadate (28). 1% NP-40 or 1% digitonin cell lysates were immunoprecipitated with Sepharose-PA (Amersham Pharmacia Biotech)-coupled mAbs. Samples were analyzed in discontinuous SDS-PAGE, transferred to Immobilon P (Millipore), and probed with: (a) anti-phosphotyrosine mAb (PY20-HRPO; Transduction Laboratories); (b) anti-SHP-2 or anti-SHP-1 mAbs (PTP1D and PTP1C, respectively; Transduction Laboratories) followed by rabbit anti-mouse-HRPO (Dako); (c) anti-SH2D1A rabbit anti-serum (produced by Eurogentec S.A; reference 28) followed by donkey anti-rabbit-HRPO (Amersham Pharmacia Biotech). The Renaissance Chemiluminescence Kit (NEN Life Science Products) was used for detection. Putative NTB-A association with known signal transducing molecules was analyzed by probing NTB-A immunoprecipitates, obtained from 1% digitonin cell lysates, with anti-FcRI (provided by E. Vivier, Marseille, France), anti-DAP12 (SI-28; reference 10), and anti-LAT (UBI; Upstate Biotechnology) antisera or with anti-CD3mAb (TIA/2; Immunotech).

[2] = target: T1, NTB-A (NK-T-B-antigen); experiment: NTB-A immunoprecipitates from 1% digitonin NK cell lysates probed with anti-LAT antiserum
Procedure: as §1

binding result [1]: no binding
B1: KARAP/DAP12 (other, human, UniProt O43914 22-113, looked up)
chain: LRPVQAQAQSDCSCSTVSPGVLAGIVMGDLVLTVLIALAVYFLGRLVPRGRGAAEAATRKQRITETESPYQELQGQRSDVYSDLNTQRPYYK

binding result [2]: no binding
B2: linker for activation of T cells (LAT) (other, human, UniProt O43561 1-262, looked up)
chain: MEEAILVPCVLGLLLLPILAMLMALCVHCHRLPGSYDSTSSDSLYPRGIQFKRPHTVAPWPPAYPPVTSYPPLSQPDLLPIPRSPQPLGGSHRTPSSRRDSDGANSVASYENEGASGIRGAQAGWGVWGPSWTRLTPVSLPPEPACEDADEDEDDYHNPGYLVVLPDSTPATSTAAPSAPALSTPGIRDSAFSMESIDDYVNVPESGESAEASLDGSREYVNVSQELHPGAAKTEPAALSSQEAEEVEEEGAPDYENLQELN

binding result [1]: no binding
B3: FcεRIγ (other, human, UniProt P30273 19-86, looked up)
chain: LGEPQLCYILDAILFLYGIVLTLLYCRLKIQVRKAAITSYEKSDGVYTGLSTRNQETYETLKHEKPPQ
